# Laboratory results from patent publication US20250222125A1, “Anti-FGFR2b Antibodies, Conjugates and Methods of Use” (BeiGene, Ltd., priority 2024, published 2025).
# What was measured:
# human FGFR2b = human FGFR2b (Homo sapiens, UniProt P21802); experiment: ELISA protein binding to human FGFR2b (Example 4); conditions: coated protein
# Description: (§1) The binding affinity and specificity of purified anti-FGFR2b antibodies were determined by ELISA and FACS. […] After incubation and washing, the plates were developed with HRP substrate and absorbance was measured. […] After washing twice with FACS buffer, diluted Alexa Fluor 647 goat anti-human IgG secondary antibody was added and incubated with cells for 30 minutes at 4° C. in the dark. After washing twice with FACS buffer, cells were resuspended with FACS buffer and read using a Becton Dickinson LSR FortessaTM cell analyzer. Non-specific binding of these antibodies was evaluated by FACS binding against parental 293T blank cells. Titration curves were generated using a sigmoidal dose-response of nonlinear fit from GraphPadTM Software by Dotmatics.
# Human FGFR2c = Human FGFR2c (Homo sapiens, UniProt P21802); experiment: ELISA protein binding to human FGFR2c (Example 4); conditions: coated protein
# Human FGFR2c, sequence (P21802 22-821): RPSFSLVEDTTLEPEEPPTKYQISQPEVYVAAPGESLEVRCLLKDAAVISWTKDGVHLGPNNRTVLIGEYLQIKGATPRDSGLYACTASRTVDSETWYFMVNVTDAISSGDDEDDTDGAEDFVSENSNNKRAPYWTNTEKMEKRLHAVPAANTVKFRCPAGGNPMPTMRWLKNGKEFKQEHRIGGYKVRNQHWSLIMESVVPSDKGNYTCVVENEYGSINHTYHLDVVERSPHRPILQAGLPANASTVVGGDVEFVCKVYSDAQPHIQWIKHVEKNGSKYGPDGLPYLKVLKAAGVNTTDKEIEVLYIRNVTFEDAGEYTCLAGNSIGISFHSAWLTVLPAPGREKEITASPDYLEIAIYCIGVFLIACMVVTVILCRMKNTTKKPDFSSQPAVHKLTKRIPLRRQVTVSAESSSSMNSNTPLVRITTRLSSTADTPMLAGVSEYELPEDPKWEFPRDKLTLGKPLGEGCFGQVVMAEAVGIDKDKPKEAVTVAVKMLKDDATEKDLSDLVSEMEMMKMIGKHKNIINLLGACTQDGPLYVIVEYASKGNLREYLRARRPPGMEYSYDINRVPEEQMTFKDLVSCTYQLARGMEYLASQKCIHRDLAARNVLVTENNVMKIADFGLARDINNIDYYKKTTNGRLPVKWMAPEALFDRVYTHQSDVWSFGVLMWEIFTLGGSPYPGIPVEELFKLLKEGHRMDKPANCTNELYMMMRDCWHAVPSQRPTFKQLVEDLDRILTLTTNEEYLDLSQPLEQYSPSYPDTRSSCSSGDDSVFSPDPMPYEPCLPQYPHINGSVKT
# Description: as §1
# Human FGFR2b OE cells = molecular target: T1, Human FGFR2b OE cells (Homo sapiens, UniProt P21802); experiment: FACS cellular binding, human FGFR2b OE cells (Example 4)
# T1 construct: expressed in transfected cells; host or cells: 293T
# T1 sequence (P21802 22-822 isoform P21802-3 limits assumed): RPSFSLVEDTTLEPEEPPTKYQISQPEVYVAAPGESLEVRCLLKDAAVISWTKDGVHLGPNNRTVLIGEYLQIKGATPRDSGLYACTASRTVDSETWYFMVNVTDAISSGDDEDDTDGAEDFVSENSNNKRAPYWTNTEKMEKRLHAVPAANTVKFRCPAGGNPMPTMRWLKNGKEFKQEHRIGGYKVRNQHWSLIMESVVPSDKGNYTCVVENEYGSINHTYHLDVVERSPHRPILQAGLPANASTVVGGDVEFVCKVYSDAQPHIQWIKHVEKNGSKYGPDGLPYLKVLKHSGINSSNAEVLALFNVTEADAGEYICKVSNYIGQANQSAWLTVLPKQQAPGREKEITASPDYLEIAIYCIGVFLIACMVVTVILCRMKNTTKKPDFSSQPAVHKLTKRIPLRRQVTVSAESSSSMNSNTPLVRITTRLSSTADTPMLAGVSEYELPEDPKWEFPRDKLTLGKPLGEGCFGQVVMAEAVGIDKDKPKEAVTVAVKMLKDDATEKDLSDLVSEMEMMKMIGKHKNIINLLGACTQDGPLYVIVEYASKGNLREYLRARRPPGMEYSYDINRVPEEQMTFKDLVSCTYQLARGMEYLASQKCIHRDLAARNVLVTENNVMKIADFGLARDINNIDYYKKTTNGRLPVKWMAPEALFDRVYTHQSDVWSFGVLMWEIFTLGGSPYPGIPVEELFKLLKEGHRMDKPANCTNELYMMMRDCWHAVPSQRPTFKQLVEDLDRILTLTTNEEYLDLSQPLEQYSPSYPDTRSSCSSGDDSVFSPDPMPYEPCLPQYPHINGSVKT
# Description: as §1
# Murine FGFR2b OE cells = molecular target: T2, Murine FGFR2b OE cells (Mus musculus, UniProt P21803); experiment: FACS cellular binding, murine FGFR2b OE cells (Example 4)
# T2 construct: expressed in transfected cells; host or cells: 293T
# T2 sequence (P21803 22-707 isoform P21803-2 limits assumed): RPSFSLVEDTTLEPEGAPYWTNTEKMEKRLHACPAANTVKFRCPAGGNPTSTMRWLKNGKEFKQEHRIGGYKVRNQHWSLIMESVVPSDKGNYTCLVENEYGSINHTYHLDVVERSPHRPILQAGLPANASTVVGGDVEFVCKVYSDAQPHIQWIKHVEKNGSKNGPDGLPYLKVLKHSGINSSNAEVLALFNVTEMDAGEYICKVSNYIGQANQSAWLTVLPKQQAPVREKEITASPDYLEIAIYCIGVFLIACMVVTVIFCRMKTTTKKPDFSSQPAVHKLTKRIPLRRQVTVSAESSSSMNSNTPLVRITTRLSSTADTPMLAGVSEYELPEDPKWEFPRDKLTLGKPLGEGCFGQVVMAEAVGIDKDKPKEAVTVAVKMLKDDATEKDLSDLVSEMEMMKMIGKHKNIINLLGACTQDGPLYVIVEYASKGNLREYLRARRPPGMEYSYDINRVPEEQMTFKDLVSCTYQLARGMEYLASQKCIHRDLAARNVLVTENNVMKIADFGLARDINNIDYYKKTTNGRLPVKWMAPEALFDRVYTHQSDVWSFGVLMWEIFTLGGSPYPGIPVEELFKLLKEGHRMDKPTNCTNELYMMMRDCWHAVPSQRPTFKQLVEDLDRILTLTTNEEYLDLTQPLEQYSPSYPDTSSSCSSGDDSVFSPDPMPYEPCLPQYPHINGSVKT
# Description: as §1
# Human FGFR2c OE cells = Human FGFR2c OE cells (Homo sapiens, UniProt P21802); experiment: FACS cellular binding, human FGFR2c OE cells (Example 4)
# Human FGFR2c OE cells, sequence (P21802 22-821): as the sequence (P21802 22-821) above
# Description: as §1
# 293T blank cells = experiment: FACS non-specific binding, parental 293T blank cells (Example 4)
# Description: as §1
# [1] = molecular target: T3, soluble human FGFR2b proteins (Homo sapiens, UniProt P21802); experiment: SPR binding kinetics (Biacore 8K, Example 5); conditions: room temperature
# T3 construct: soluble human FGFR2b proteins (his tag, in-house generated); His tag; made in house
# T3 sequence (P21802 22-378 isoform P21802-3 limits assumed): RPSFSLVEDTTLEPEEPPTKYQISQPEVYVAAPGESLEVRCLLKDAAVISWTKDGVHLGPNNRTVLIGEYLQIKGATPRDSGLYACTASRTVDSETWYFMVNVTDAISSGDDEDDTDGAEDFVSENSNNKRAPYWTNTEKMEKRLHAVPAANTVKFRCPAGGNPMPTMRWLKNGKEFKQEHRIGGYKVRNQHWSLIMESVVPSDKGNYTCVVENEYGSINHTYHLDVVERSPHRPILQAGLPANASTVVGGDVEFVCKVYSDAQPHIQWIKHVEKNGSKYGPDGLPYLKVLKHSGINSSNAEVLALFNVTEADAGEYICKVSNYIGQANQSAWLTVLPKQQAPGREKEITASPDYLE
# Description: The binding affinity and kinetics of purified anti-FGFR2b antibodies were determined by surface plasmon resonance (Biacore 8K, GE Life Sciences) at room temperature. Briefly, mouse anti-human IgG Fc antibody was immobilized via amine coupling onto a activated CM5 biosensor chip (Cat. No. BR100530, GE Life Sciences). Purified monoclonal antibody candidates were flowed over the chip surface and captured by anti-human IgG antibody. Then a serial dilution of soluble human FGFR2b proteins (his tag, in-house generated) were injected over the antibodies captured surface and changes in surface plasmon resonance signals were analyzed to calculate the association rates (kon) and dissociation rates (koff) by using the one-to-one Langmuir binding model (BIA Evaluation Software, GE Life Sciences). The equilibrium dissociation constant (KD) was calculated as the ratio koff/kon.
# BaF3_hFGFR2b OE cells = experiment: Ligand-induced proliferation inhibition assay in BaF3_hFGFR2b OE cells; assay type: cell-based; conditions: antibody 10 μg/ml, heparin 5 μg/ml, 72 hours
# Description: The inhibition activity of antibody on ligand-induced cell proliferation was evaluated in an FGFR2b engineered BaF3 cell line system (BaF3_hFGFR2b OE). BaF3 cells are dependent on interleukin-3 (IL-3) for growth. The BaF3 system allows for testing of kinases and kinase inhibitors. Some protein kinases can render BaF3 cells to be independent of IL-3, whereas kinase inhibitors antagonize this effect. Cells were seeded in 96-well plates at 30,000 cells/well in RPMI-1640 medium containing 10% fetal bovine serum. Anti-FGFR2b antibodies at a concentration of 10 μg/ml were added to the assay plates. Recombinant human FGF7 or FGF10 protein (40 ng/ml) in the presence of heparin (5 μg/ml) was added to the assay plates. The plates were incubated at 37° C., 5% CO2, 95% humidity in an incubator for 72 hours. Following incubation, 50 μl Cell Titer Glo reagent was added to each well and the plates were mixed for 1 min and then incubated at RT for 10 min. Luminescence signals were detected and recorded.
# The Ba/F3 system is used to investigate downstream oncogenic signaling pathways and the susceptibility of driver variants to therapeutics. Driver-addicted Ba/F3 cells die when the driver-engaged signaling pathway is inhibited, and this effect can be rescued by re-introduction of […].
# FIGS. 6 and 7 show the results of Ba/F3 proliferation assays. […]
# [2] = system: phosphorylated FGFR in SNU-16 cells; experiment: Inhibition of FGFR2 signaling in SNU-16 cells (Western blot of pFGFR); assay type: cell-based; conditions: antibody 10 μg/ml, 2 hours
# Description: Inhibition of the FGFR2 signaling pathway by the humanized antibodies was investigated. SNU-16 cells were grown in RPMI-1640 medium with 10% FBS, collected and washed twice with free medium and then seeded in 12-well plates at 1.5E6 cells/well in serum-free RPMI-1640. The plates were incubated at 37° C., 5% CO2, and 95% humidity in an incubator overnight. Anti-FGFR2b antibodies at a concentration of 10 μg/ml were added to the assay plates. Recombinant human FGF7 or FGF10 protein (10 ng/ml) in the presence of heparin (5 μg/ml) was added to the assay plates. The plates were incubated in a 37° C., 5% CO2, 95% humidity incubator for 2 hours. Following 2 hours incubation, cells were collected and washed twice with cold PBS. NP40 lysis buffer containing 1×PMSF and 1× Protease plus phosphatase inhibitors were added to the cell pellets. The mixture was pipetted up and down to suspend the pellet. The mixture was inverted gently and each placed for 10 minutes on ice, for a total of 30 minutes. The mixture was centrifuged at 12000× rpm for 10 minutes to pellet the cell debris. The supernatant was transferred to a new tube to quantify total protein concentration by BCA Kit. The protein samples were then split and stored at −80° C. for further Western blotting to detect the expression of pFGFR and total FGFR2. […]
# [3] = system: co-inoculated HSC-39+SNU-5 xenografts; experiment: Co-inoculated HSC-39+SNU-5 gastric cancer xenografts; assay type: in vivo, BALB/c nude mice; conditions: HSC-39:SNU-5 ratios of 2:1 and 5:1, single dose 10 mpk i.v.
# Description: HSC-39 and SNU-5 were cultured in Dulbecco's modified Eagle's medium (DMEM), supplemented with 10% (v/v) fetal bovine serum, 100 U/ml penicillin, and 100 μg/mL streptomycin. Cells were incubated in a humidified incubator with 5% CO2 at 37° C. On the day of implantation, cells were collected and washed with serum-free medium. Six- to eight-week-old female BALB/c nude mice were purchased and housed in ventilated cages, given food and water ad libitum, and allowed to acclimate for approximately 1 week prior to inoculation. A total of 5×10^6 HSC-39 and SNU-5 cancer cells mixed with matrigel at a ratio of 2:1 or 5:1 were implanted subcutaneously into the mouse flank. […] Tumor volumes were measured twice weekly. Data is presented as mean tumor volume ±standard error of the mean (SEM). In the vehicle group at a 2:1 HSC-39:SNU-5 ratio, there were ˜50% FGFR2b positive cells in the tumor at the starting point with ˜40% at the end point. In the vehicle group at a 5:1 HSC-39:SNU-5 ratio, there were ˜60% FGFR2b positive cells in the tumor at the starting point with ˜20% at the end point.
# [4] = patients; cited from earlier work
# human FGFR2b, sequence (P21802 22-822 isoform P21802-3 limits assumed): as the sequence (P21802 22-822 isoform P21802-3 limits assumed) above
substance,measurement,setting,value
"BGA1421: comparator antibody bemarituzumab, un-conjugated; HC SEQ ID NO: 35, LC SEQ ID NO: 36 [reference compound]",EC50,human FGFR2b,0.61 nM
same,Human FGFR2b binding Emax(OD450),human FGFR2b,2.62 OD450
same,Human FGFR2c binding Emax(OD450),Human FGFR2c,0.09 OD450
same,EC50,Human FGFR2b OE cells,0.48 nM
same,EC50,Murine FGFR2b OE cells,0.81 nM
same,Human FGFR2c OE cells binding Emax,Human FGFR2c OE cells,40 MFI
same,293T blank cells binding Emax,293T blank cells,18 MFI
same,ka,[1]; antibody captured,104000 M⁻¹ s⁻¹
same,kd,[1]; antibody captured,0.00232 s⁻¹
same,Kd,[1]; koff/kon,22.2 nM
same,inhibition of FGF7-induced BaF3_hFGFR2b cell proliferation,BaF3_hFGFR2b OE cells; FGF7 40 ng/ml,potently inhibit
same,inhibition of FGF10-induced BaF3_hFGFR2b cell proliferation,BaF3_hFGFR2b OE cells; FGF10 40 ng/ml,potently inhibit
same,FGF7-induced FGFR phosphorylation,[2]; FGF7 10 ng/ml,down-regulation of phosphorylated FGFR
same,FGF10-induced FGFR phosphorylation,[2]; FGF10 10 ng/ml,down-regulation of phosphorylated FGFR
same,tumor growth,[3],inhibited tumor growth but was less potent
same,treatment discontinuation rate caused by corneal toxicity,[4],26%
